Test results from US6930088B2, “Conformationally constrained backbone cyclized somatostatin analogs” (Peptor Ltd., priority 1998, dated 2005).
Where no end group is shown, it is not given here.

Experiments:
Assay in all cases: 125I-Tyr11-SRIF displacement on SSTR membrane preparations, negative control peptide
[1] = molecular target: T1, cloned human somatostatin receptor 1 (human, UniProt P30872 1-391)
T1 construct: whole, on cells; Tested as cell membrane preparations; also called SSTR-1; SSTR1
T1 sequence (P30872 whole entry): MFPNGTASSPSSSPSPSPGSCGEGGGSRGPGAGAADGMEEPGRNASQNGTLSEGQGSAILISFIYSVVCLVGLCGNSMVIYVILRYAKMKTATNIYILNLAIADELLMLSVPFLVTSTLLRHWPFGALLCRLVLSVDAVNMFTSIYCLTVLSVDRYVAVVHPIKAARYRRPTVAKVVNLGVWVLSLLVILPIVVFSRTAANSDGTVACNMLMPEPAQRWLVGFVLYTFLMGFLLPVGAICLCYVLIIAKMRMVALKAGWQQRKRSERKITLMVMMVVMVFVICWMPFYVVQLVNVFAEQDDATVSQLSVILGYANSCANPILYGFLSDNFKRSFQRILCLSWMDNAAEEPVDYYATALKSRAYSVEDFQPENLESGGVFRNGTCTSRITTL
Text: (§1) The receptor preparations used for these tests were either from the cloned human receptors selectively and stably expressed in Chinese Hamster Ovary (CHO) cells or from cell lines naturally expressing the SSTRs. […] The binding reactions were filtered, the filters were washed and the bound radioactivity was counted in gamma counter.
(§2) In order to validate positive signals of the binding tests, and to eliminate non-specific signals, samples of irrelevant peptides, such as GnRH, that were synthesized and handled using the same procedures, were tested in the same assays as negative control samples. These samples had no binding activity in any of the assays. Results are shown below in Tables 5 and 6 and FIG. 1.

[2] = molecular target: T2, cloned human somatostatin receptor 2 (human, UniProt P30874 1-369)
T2 construct: whole, on cells; Tested as cell membrane preparations; also called SSTR-2; SSTR2
T2 sequence (P30874 whole entry): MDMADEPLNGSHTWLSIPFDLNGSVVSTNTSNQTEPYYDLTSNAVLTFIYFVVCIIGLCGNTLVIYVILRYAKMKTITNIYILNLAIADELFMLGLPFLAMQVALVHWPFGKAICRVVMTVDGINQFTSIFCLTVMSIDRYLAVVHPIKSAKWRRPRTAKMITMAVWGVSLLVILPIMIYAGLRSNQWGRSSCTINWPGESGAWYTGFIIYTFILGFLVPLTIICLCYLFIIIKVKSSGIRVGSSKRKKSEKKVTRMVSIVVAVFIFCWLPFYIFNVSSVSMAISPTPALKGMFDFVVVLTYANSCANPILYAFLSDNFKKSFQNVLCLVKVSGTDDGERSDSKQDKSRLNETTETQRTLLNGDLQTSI
Text: as §1, §2

[3] = molecular target: T3, cloned human somatostatin receptor 3 (human, UniProt P32745 1-418)
T3 construct: whole, on cells; Tested as cell membrane preparations; also called SSTR-3; SSTR3
T3 sequence (P32745 whole entry): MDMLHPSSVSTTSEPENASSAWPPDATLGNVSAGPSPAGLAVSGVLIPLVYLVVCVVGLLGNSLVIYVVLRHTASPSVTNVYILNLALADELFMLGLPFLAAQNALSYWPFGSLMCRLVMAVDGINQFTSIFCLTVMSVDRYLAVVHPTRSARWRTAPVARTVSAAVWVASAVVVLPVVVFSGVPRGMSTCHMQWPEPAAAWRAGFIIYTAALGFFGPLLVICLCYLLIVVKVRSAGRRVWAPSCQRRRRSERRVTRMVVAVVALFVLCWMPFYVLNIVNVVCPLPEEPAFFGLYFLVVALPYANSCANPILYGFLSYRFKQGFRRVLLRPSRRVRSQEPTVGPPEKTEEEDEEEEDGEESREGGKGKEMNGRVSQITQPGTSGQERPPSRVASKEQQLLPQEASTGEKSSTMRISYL
Text: as §1, §2

[4] = molecular target: T4, cloned human somatostatin receptor 4 (human, UniProt P31391 1-388)
T4 construct: whole, on cells; Tested as cell membrane preparations; also called SSTR-4; SSTR-R4
T4 sequence (P31391 whole entry): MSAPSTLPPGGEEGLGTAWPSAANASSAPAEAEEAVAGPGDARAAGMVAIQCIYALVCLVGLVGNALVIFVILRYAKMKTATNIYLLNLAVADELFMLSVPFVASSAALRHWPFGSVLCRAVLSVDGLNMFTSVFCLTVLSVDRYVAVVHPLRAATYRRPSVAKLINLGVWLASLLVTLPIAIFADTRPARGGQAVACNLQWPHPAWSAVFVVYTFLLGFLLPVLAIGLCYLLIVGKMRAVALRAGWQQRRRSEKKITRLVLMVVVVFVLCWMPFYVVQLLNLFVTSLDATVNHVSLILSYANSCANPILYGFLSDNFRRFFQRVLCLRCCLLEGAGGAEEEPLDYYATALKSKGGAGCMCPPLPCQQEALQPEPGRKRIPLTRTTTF
Text: as §1, §2

[5] = molecular target: T5, cloned human somatostatin receptor 5 (human, UniProt P35346 1-364)
T5 construct: whole, on cells; Tested as cell membrane preparations; also called SSTR-5; SSTR5
T5 sequence (P35346 whole entry): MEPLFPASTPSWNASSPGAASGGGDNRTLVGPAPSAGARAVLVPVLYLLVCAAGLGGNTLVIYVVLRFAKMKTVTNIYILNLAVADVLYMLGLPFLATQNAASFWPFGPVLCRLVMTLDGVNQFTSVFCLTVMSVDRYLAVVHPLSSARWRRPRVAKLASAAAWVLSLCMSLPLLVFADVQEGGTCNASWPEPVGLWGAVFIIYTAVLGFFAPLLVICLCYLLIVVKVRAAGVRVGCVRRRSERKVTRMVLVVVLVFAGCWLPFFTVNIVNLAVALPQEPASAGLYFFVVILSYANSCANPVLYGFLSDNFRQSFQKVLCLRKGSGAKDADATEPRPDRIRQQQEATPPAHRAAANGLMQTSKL
Text: as §1, §2

Measured: binding result

B1: GnRH (peptide, UniProt P01148 24-33, looked up)
peptide: QHWSYGLRPG
modifications: not fully specified (residue 1, C-terminus)
notes: Negative control sample; also called irrelevant peptides, such as GnRH
no binding: all assays above
